Biological target: the molecule itself
Assay: cryo-EM structure; single particle averaging of unstained frozen-hydrated PilQ complexes in a dodecyl maltoside-containing buffer at 1 mg/ml; 25,303 particles; C12 symmetry

B1: PilQ dodecamer (complete N. meningitidis PilQ oligomer) (natural protein)
chain: GNITDIKVSSLPNKQKIVKVSFDKEIVNPTGFVTSSPARIALDFEQTGISMDQQVLEYADPLLSKISAAQNSSRARLVLNLNKPGQYNTEVRGNKVWIFINESDDTVSAPARPAVKAAPAAPAKQQAAAPSTKSAVSVSEPFTPAKQQAAAPFTESVVSVSAPFSPAKQQAAASAKQQAAAPAKQQAAAPAKQQAAAPAKQTNIDFRKDGKNAGIIELAALGFAGQPDISQQHDHIIVTLKNHTLPTTLQRSLDVADFKTPVQKVTLKRLNNDTQLIITTAGNWELVNKSAAPGYFTFQVLPKKQNLESGGVNNAPKTFTGRKISLDFQDVEIRTILQILAKESGMNIVASDSVNGKMTLSLKDVPWDQALDLVMQARNLDMRQQGNIVNIAPRDELLAKDKALLQAEKDIADLGALYSQNFQLKYKNVEEFRSILRLDNADTTGNRNTLISGRGSVLIDPATNTLIVTDTRSVIEKFRKLIDELDVPAQQVMIEARIVEAADGFSRDLGVKFGATGKKKLKNDTSAFGWGVNSGFGGDDKWGAETKINLPITAAANSISLVRAISSGALNLELSASESLSKTKTLANPRVLTQNRKEAKIESGYEIPFTVTSIANGGSSTNTELKKAVLGLTVTPNITPDGQIIMTVKINKDSPAQCASGNQTILCISTKNLNTQAMVENGGTLIVGGIYEEDNGNTLTKVPLLGDIPVIGNLFKTRGKKTDRRELLIFITPRIMGTAGNSLRY
notes: PilQ secretin, Neisseria meningitidis; The source of the sample is in Text S1; also called entire PilQ dodecamer; intact PilQ oligomer; source: PilQ complexes resuspended in a dodecyl maltoside-containing buffer at 1 mg/ml; copies: 12
For B1, the “stoichiometry N” value was 12.

Source: publication PMC3441751, “Structure and Assembly of a Trans-Periplasmic Channel for Type IV Pili in Neisseria meningitidis” (PLoS Pathogens, 2012)
